# Legend:
# [1] = biological target: EG-VEGF binding component on human umbilical vein endothelial cells (HUVEC) (human); experiment: displacement of 125I-EG-VEGF by unlabeled tagged EG-VEGF on HUVEC and other non-responsive cells
# [2] = biological target: EG-VEGF receptor (high affinity binding sites) on bovine adrenal cortical capillary endothelial cells (ACE) (bovine); experiment: displacement of 125I-EG-VEGF by unlabeled tagged EG-VEGF on ACE cells
# [3] = biological target: EG-VEGF receptor (high affinity binding sites) on bovine adrenal cortical capillary endothelial cells (ACE) (bovine); experiment: 125I-EG-VEGF competitive binding on ACE cells, Scatchard analysis
binder,measurement,setting,value
"EG-VEGF-his (human EG-VEGF with C-terminal … tag, baculovirus-produced) (ligand, 125I-iodinated when used as tracer in the cell binding assays (Iodobead or lactoperoxidase method); the unlabeled form was the competitor and the ELISA antigen) AVITGACERDVQCGAGTCCAISLWLRGLRMCTPLGREGEECHPGSHKVPFFRKRKHHTCPCLPNLLCSRFPDGRYRCSMDLKNINFGHHHHHHHH",competitor concentration that displaces the binding,[1],> 270 nM
same,ED50,[2],10 nM
same,Kd,[3],0.9 to 1 nM

# From patent publication US7264801
